In paper PMC6535718 (2019):

Target: T1, Bfd (Pseudomonas aeruginosa, UniProt Q9HY80)
T1 chain: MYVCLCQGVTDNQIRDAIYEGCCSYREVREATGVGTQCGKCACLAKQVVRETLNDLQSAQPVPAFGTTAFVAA
Experiment: SPR

B1: BfrB (protein)
chain: not shown
modifications: apo-BfrB (heme-free)
Binder B1 has a Kd of 3.1 µM.
